Target: GAPDH (human (endogenous in U2OS)) (UniProt P04406)
Experiment: cross-linking; titration of formaldehyde on intact adherent U2OS cells, quenched with Tris, extracted in SDS denaturing buffer, immunoblot of total cell lysates; 6% formaldehyde optimal

GAPDH, P04406 1-335 (enzyme; other documents disagree on this pair), sequence (P04406 whole entry): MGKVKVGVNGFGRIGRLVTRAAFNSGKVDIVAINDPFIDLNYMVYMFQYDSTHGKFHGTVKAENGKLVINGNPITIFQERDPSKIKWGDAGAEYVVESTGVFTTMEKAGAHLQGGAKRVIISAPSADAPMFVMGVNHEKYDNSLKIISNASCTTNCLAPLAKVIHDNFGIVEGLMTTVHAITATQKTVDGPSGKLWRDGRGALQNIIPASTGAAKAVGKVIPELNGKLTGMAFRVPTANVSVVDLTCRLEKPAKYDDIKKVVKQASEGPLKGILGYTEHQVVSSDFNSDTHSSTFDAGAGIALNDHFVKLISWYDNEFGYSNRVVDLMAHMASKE

- stoichiometry N: 4
Substance: GAPDH, P04406 1-335 (enzyme; other documents disagree on this pair)
